According to patent US20150031748A1 (AGENCY FOR SCIENCE TECHNOLOGY AND RESEARCH, published 2015):

How the values were obtained:
[1] = target: T1, HA-Slug (full length mouse Slug in pDHA, two HA tags) (Mus musculus, UniProt P97469 1-269, 35S-methionine labelled in Example 5); test: GST pull-down of 35S-labeled in vitro translated protein, autoradiography
T1 construct: also called pDHA-Slug; HA tagged Slug; not shown: the two HA tags of the pDHA vector and any vector linker
T1 sequence: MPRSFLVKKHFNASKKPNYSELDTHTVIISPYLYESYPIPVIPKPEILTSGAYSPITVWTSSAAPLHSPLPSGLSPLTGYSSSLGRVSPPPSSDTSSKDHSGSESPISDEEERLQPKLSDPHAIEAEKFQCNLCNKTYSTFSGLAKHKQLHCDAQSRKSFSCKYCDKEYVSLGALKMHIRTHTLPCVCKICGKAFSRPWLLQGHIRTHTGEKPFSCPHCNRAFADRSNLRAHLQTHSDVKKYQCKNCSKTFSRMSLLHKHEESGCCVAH
Method: In vitro translation was carried out using Quick Coupled T7 TNT System (Promega, Madson, Wis.) according to the manufacturers protocol. Slug, EX and ZNF cloned into the pDHA vector were in vitro translated and labeled with 35S Methionine. GST, GST-ZO-2 SGA, GST-ZO-2 SH3, GST-20-2 GA, GST-ZO-2 AP and GST-ZO-2 P were produced, purified as described above and were bound to glutathione Sepharose-4B (Amersham Biosciences, Piscataway, N.J., USA) following standard protocols.
Purified GST-fusion proteins were quantified by SDS-PAGE by comparing with known amounts of BSA as standards. 20 μl bed volume of beads carrying 20 μg of GST or the above GST fused ZO-2 truncated proteins were incubated with 10 μl of in vitro translated 35S Methionine labeled, HA tagged Slug, EX or ZNF and topped up with 200 μl of buffer B (PBS with 1% TX-100 PBS, 1 mM EDTA, Complete EDTA free protease inhibitor cocktail (Roche Diagnostics, Indianapolis, Ind.), 1 mM dithiothreitol (DTT), 300 μg/ml Benzamiidine) for 3 h at 4° C. The beads were washed three times with 500 μl of buffer B each time. This was followed by suspension in 30 μl of SDS sample buffer and the analysis of the bound proteins by running through a 15% SDS-PAGE gel and autoradiography, with a 2 to 3 day exposure period. To reciprocate the binding, GST, GST-Slug and GST-ZNF were used as baits. […]

[2] = target: T2, GST-ZO-2SGA (canine ZO-2 amino acids 575-947 in pGEX-6P-1) (Canis lupus familiaris, UniProt Q95168 575-947); test: GST binding assay with GFP-Slug MDCK lysate, anti-Slug blot
T2 construct: also called GST-ZO2 SGA WT
T2 sequence: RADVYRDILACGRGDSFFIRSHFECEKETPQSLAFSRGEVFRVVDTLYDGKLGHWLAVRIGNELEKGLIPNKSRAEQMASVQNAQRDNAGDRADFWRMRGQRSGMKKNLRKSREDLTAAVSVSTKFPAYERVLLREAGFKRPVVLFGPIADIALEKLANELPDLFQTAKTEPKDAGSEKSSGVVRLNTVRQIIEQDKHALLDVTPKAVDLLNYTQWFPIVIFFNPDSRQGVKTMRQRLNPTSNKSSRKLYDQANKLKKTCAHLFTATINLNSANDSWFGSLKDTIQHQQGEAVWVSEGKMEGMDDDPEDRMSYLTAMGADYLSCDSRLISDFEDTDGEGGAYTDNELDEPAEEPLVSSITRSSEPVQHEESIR

[3] = target: T3, human ZO-1 SGA domain (amino acids 490-883) in bait vector pGBKT7 (human, UniProt P04386 1-147; Q07157 490-883); test: yeast two-hybrid, QDO growth and beta-galactosidase activity
T3 construct: Yeast two-hybrid bait
Source text: (§1) All experimental details were according to the manufacturer's protocols. Clones were screened at high stringency with a quadruple (-Trp, -Leu, -His, -Ade) dropout media and then tested for α- and β-galactosidase activity. Library plasmids with the cDNA inserts from positive clones were isolated and sequenced, resulting in the identification of the entire Slug cDNA. The interaction was retested by transforming this Slug cDNA plasmid with bait vectors carrying the human ZO-1 SGA domain (amino acids 490-883), the canine ZO-2 SGA (amino acids 575-945), SH3 (amino acids 575-713), as well as the GA domain (amino acids 714-945) or the canine ZO-3 […] domain (amino acids 450-899). Empty pGBKT7 and a bait plasmid with […] cDNA (Clontech) were used as negative controls.
(§2) The interaction was retested by transforming this Slug cDNA plasmid with bait vectors carrying the human ZO-1SGA domain (amino acids 490-883), the canine ZO-2SGA (amino acids 575-945), SH3 (amino acids 575-713), GA domain (amino acids 714-945), as well as the canine ZO-3SGA domain (amino acids 450-899). Interactions were determined by monitoring the growth of the co-transformed yeasts in on selective media & β-galactosidase activity. […]

[4] = target: T4, canine ZO-3 SGA domain (amino acids 450-899) in bait vector pGBKT7 (canine, UniProt P04386 1-147; O62683 450-898); test: as above
T4 construct: Yeast two-hybrid bait; also called canine ZO-3 SGC domain
Source text: as §1, §2

[5] = target: T5, MYC tagged GA domain of canine ZO-3 (amino acids 606-899), in vitro translated (canine, UniProt O62683 606-898); test: GST pull-down of in vitro translated MYC-tagged GA domain, anti-myc blot
T5 construct: range 606-899; also called MYC-ZO-3GA; ZO-3GA; not shown: MYC tag from pGBKT7
T5 sequence (looked up): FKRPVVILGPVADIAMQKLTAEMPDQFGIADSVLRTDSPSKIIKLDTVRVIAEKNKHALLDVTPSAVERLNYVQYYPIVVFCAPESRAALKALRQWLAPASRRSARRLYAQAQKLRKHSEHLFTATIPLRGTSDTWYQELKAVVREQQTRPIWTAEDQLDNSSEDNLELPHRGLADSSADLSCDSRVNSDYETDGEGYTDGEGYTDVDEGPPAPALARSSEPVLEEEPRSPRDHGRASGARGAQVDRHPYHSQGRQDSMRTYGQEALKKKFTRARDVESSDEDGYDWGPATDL

B1: GST-ZO-2P (proline rich domain, canine ZO-2 amino acids 948-1174 in pGEX-6P-1) (other)
chain: KPSPEPRAQMRRAASRDQLRDSSPPPAFKPEPPKAKTQNREESFDISRSHDYKSNPSAVAGNEVSGASTRSCPPPIAAKPSFGRSILKPSTPVPSPESEEVGEGSEEQEGAPKSVLGKVKIFEKMDHKARLQRMQELQEAQNARIEIAQKHPDIYAVPIKTHKPDPGLSQHTSSRPPEPQKGPSRLYQDPRGSYGSDAEEEEYRQQLSEHSKRGYYSQPSRYRDTEL
notes: also called the P; not shown: GST of pGEX-6P-1 and its linker (PreScission site, cloning-site residues)
B1: no binding [1].

B2: GFP-Slug (full length mouse Slug in pEGFP, stably expressed in MDCK cells) (other)
chain: MPRSFLVKKHFNASKKPNYSELDTHTVIISPYLYESYPIPVIPKPEILTSGAYSPITVWTSSAAPLHSPLPSGLSPLTGYSSSLGRVSPPPSSDTSSKDHSGSESPISDEEERLQPKLSDPHAIEAEKFQCNLCNKTYSTFSGLAKHKQLHCDAQSRKSFSCKYCDKEYVSLGALKMHIRTHTLPCVCKICGKAFSRPWLLQGHIRTHTGEKPFSCPHCNRAFADRSNLRAHLQTHSDVKKYQCKNCSKTFSRMSLLHKHEESGCCVAH
notes: not shown: EGFP of the pEGFP vector and its linker to Slug
B2: binds [2].

B3: full-length mouse Slug fused to the GAL4 transactivator domain (library clone 30A) (other, not shown: small tags and cut ends)
chain: MPRSFLVKKHFNASKKPNYSELDTHTVIISPYLYESYPIPVIPKPEILTSGAYSPITVWTSSAAPLHSPLPSGLSPLTGYSSSLGRVSPPPSSDTSSKDHSGSESPISDEEERLQPKLSDPHAIEAEKFQCNLCNKTYSTFSGLAKHKQLHCDAQSRKSFSCKYCDKEYVSLGALKMHIRTHTLPCVCKICGKAFSRPWLLQGHIRTHTGEKPFSCPHCNRAFADRSNLRAHLQTHSDVKKYQCKNCSKTFSRMSLLHKHEESGCCVAH
notes: Yeast two-hybrid prey, full length; also called pGADT7-Slug
B3: no binding [3]; no binding [4].

B4: GST-Slug (full length mouse Slug in pGEX4T-1) (other)
chain: MPRSFLVKKHFNASKKPNYSELDTHTVIISPYLYESYPIPVIPKPEILTSGAYSPITVWTSSAAPLHSPLPSGLSPLTGYSSSLGRVSPPPSSDTSSKDHSGSESPISDEEERLQPKLSDPHAIEAEKFQCNLCNKTYSTFSGLAKHKQLHCDAQSRKSFSCKYCDKEYVSLGALKMHIRTHTLPCVCKICGKAFSRPWLLQGHIRTHTGEKPFSCPHCNRAFADRSNLRAHLQTHSDVKKYQCKNCSKTFSRMSLLHKHEESGCCVAH
notes: Full length Slug; not shown: GST and the protease-site linker encoded by pGEX4T-1
B4: no binding [5].
